experiment: soluble on expression in E. coli; label from the status in PepcDB or PDB records

Question: For “MQGFASQPESSYWYPETLLDWSPETDPDARFNRSSIPLREREVLYTVNDTQQTDAKLVALSALNPNTSGVPSQGGNEFFANTFGFWQYVDLMVYWAGSAGEGIITPPSGDVIDAAHRNGVPILGNVFFPPKVYGGQEEWVDKMLVRGEDGSFPAADKLLEVAEYYGFDGWFINQETEGGTPETAKDMQEFLLYLQENKPEGMHIMWYDSMISNGDIRWQNYLTDENAMFFQAGNRKVADSMFLNFWWWNHSQERSKQKAASLGRSPYDLYAGIDVEANGTNTYVNWQQVFPEGGEPHTSLGIYRPDWAFKSTDTMRDFYDREQLFWVGPSGNPAKVDEHAEWKGMATYFPEKTVINELPFVTHFNTGSGQFFAINGKTKLEHHHHHH”, which “soluble on expression in E. coli” value is on record?
Answer: not soluble

Question: For “MQYVKIKDAIVEQIDAGMLMPRQKLPAERKLAESFDTTRVTLREALSLLEAEGKIYREDRRGWFISPAPLRYDPTQTLNFTNMALAQNRQPKTELVSAKAVIANKQATRLLKLKPFSDVYRVDRVRYLDNRPVVYVTNYIRPELFPNLLDFDLSQSLTDLYREHYATQYQTIHYRISTSSLLGEMAQALRATSGTPAMVVERVNYNQKGELIDCDIEYWRHDAITIESIAELKR”, which “soluble on expression in E. coli” value is on record?
Answer: not soluble

Question: For “GSPGISGGGGGSHIEGYECQPIFLNVLEAIEPGVVCAGHDNNQPDSFAALLSSLNELGERQLVHVVKWAKALPGFRNLHVDDQMAVIQYSWMGLMVFAMGWRSFTNVNSRMLYFAPDLVFNEYRMHKSRMYSQCVRMRHLSQEFGWLQITPQEFLCMKALLLFSIIPVDGLKNQKFFDELRMNYIKELDRIIACKRKNPTSCSRRFYQLTKLLDSVQPIARELHQFTFDLLIKSHMVSVDFPEMMAEIISVQVPKILSGKVKPIYFHTQ”, which “soluble on expression in E. coli” value is on record?
Answer: soluble

Question: For “MSLQNMETRYTHSPADIRHYSTEQLRDEFLVEKVFIPGAISLTYTHNDRMIFGGVTPTTEELEIILDKELGVDYFLERRELGVINIGGPGFIEIDGAKETMKKQDGYYIGKETKHVRFSSENPDNPAKFYISCVPAHHKYPNVKISIDEITPMETGDPLTLNQRKIYQYIHPNVCESCQLQMGYTILEPGSAWNTMPCHTHERRMEAYVYFDMEEDTRIFHMMGKPDETKHLVMSNEQAAISPSWSIHSGVGTSNYSFIWAMCGENITYTDMDMVAMDQLKEGHHHHHH”, which “soluble on expression in E. coli” value is on record?
Answer: soluble

Question: For “MTFSLFGDKFTRHSGITLLMEDLNDGLRTPGAIMLGGGNPAQIPEMQDYFQTLLTDMLESGKATDALCNYDGPQGKTELLTLLAGMLREKLGWDIEAQNIALTNGSQSAFFYLFNLFAGRRADGRVKKVLFPLAPEYIGYADAGLEEDLFVSARPNIELLPEGQFKYHVDFEHLHIGEETGMICVSRPTNPTGNVITDEELLKLDALANQHGIPLVIDNAYGVPFPGIIFSEARPLWNPNIVLCMSLSKLGLPGSRCGIIIANEKIITAITNMNGIISLAPGGIGPAMMCEMIKRNDLLRLSETVIKPFYYQRVQETIAIIRRYLPEDRCLIHKPEGAIFLWLWFKDLPITTEQLYQRLKARGVLMVPGHNFFPGLDKPWPHTHQCMRMNYVPEPEKIEAGVKILAEEIERAWAESH”, which “soluble on expression in E. coli” value is on record?
Answer: soluble

Question: Which “soluble on expression in E. coli” value does the source give for “SGSDVRDLNALLPAVPSLGGGGGCALPVSGAAQWAPVLDFAPPGASAYGSLGGPAPPPAPPPPPPPPPHSFIKQEPSWGGAEPHEEQCLSAFTVHFSGQFTGTAGACRYGPFGPPPPSQASSGQARMFPNAPYLPSCLESQPAIRNQGYSTVTFDGTPSYGHTPSHHAAQFPNHSFKHEDPMGQQGSLGEQQYSVPPPVYGCHTPTDSCTGSQALLLRTPYSSDNLYQMTSQLECMTWNQMNLGATLKG” here?
Answer: soluble

Question: With “MSLASRRSKLIAVVVPQINNNMFVDTIQSLSDELARRGYHILLCVAGYTEQTEAELVATLLSRRPDGVVLTGIHHTIELKKVILNAAIPVVEIWDLTPTPLDMLVGFSHEKVGQATGEYLLSKGYRRPGLLWTADRRAAQRKQGLCSVLQRHAIHAVPQVDVPLPASLSLGRSGLSQLFDEGTFDVIVCSSDTLAQGAMMEAESRGLRIPHDLAVIGFGDLDFAASNRPSITTVSVDRRAIGQRAATLLADRIEQKPCAEAIVDIGFHLIGRESAEGHHHHHH” as the sequence, how does the “soluble on expression in E. coli” value read?
Answer: not soluble

Question: With “MIDREQIVRIVSDYLSTGETFLVEVAIHPGNRILVELDSAQGVCIDECVALSRHIESQVDRDIEDYELEVGSTGLTSPLKVMRQWENCIDSELSVLLTNGMKETGRLITVAPEAIKLEVVRMVKPEGAKRKKPETQELTIVMADIKQAVRII” as the sequence, how does the “soluble on expression in E. coli” value read?
Answer: not soluble

Question: Which “soluble on expression in E. coli” value does the source give for “MALWGGRFSQAADQRFKQFNDSLRFDYRLAEQDIIGSVAWSKALVTVGVLNADEQQQLEQALSVLLEEVQANPHAILASDAEDIHSWVETKLIDKVGDLGKKLHTGRSRNDQVATDLKLWCKFQITELQTAVQQLQQALVMTAEANQDAVMPGYTHLQRAQPVTFAHWCLAYVEMLSRDESRLQDTLKRLDVSPLGCGALAGTAYAIDREQLAGWLGFASATRNSLDSVSDRDHVLELLSDASIGMVHLSRFAEDLIFFNSGEAAFVDLSDRVTSGSSLMPQKKNPDALELIRGKCGRVQGALTGMTMTLKGLPLAYNKDMQEDKEGLFDALDTWLDCLHMAALVLDGIQVKRPRCKEAAEQGYANATELADYLVAKGVPFREAHHIVGEAVVEAIRQGKALEALALSDLQQFSSVIGDDVYPILALQSCLDKRVAKGGVSPQQVASAIAEAKARLF” here?
Answer: not soluble

Question: For “MKLATKKNGTRDGLLMVVSKDLTRCVPATEVFHPRNLAPTMQVALDNWEAVAPQLEEIYTALNNGTVAGFEEFEAHYCESPLPRAYQWADGSAYVNHVELVRKARGAEMPESFWTDPLMYQGGSDAFIGPCDNIEFASDEWGIDFEGEVAVVTGDVPMGASIAEAQESIRLIMLVNDVSLRGLIPAELAKGFGFFQSKPSSAFSPVAVTPDELGDEWYENKVHLPLVSTYNHKPFGRPNAGVDMTFDFADLIVHATKTRPLSAGAIIGSGTVSNKQGTDHGTSIEEGGVGYSCIAEVRMIETIRDGKPTTNFMSFGDSIKLEMFDVEGNTIFGAIDQQVSQYLKH”, which “soluble on expression in E. coli” value is on record?
Answer: not soluble

Question: For “MGHHHHHHSHMLDVYACHCTLCQKWSGGIAMYLEACGQPQLAPLSPEPPYFSSSSRGERYFCSGCGCPLWFRLTDTDRYFIPWTLLELNEVDRRRLILAAEIYTETQPAFWRLTGQYARLSGKEVEEMDSPCQLAH”, which “soluble on expression in E. coli” value is on record?
Answer: not soluble

Question: With “MQPYLIPQPGIRVSLSELIEMRHRVREVQLFSTPSRRSPLIGLHHSKLRGRGVDFDQVRVYQAGDDVRSIDWRVTARTQEPHTKLFHEERERPIFILVEQSRRLFFGSGLMFKSVLAAQAAALIGWAALEHNDRVGGLVFGDNEHYEIKPRRSKQSLLQLLNRLVRVNQSLHTEIPADRDAFGTALRRAREVLRPGSLVIVLCDERALSDVAEQQLSLLSRHSDLLLLPLSDPLDRALPAAGLLRFAERGAQLELDTLNPELRRAYRQQGEDRSARWELLAQKLRVLLMPLSTQSELVEQLREYLNAQRPVKRK” as the sequence, how does the “soluble on expression in E. coli” value read?
Answer: not soluble

Question: With “AHHHHHHGSYLSIGTLLHRPLSSNLCIAYEIATPAIYLSPGYFTTFPATYDEILLIVSTSLAFPYVWV” as the sequence, how does the “soluble on expression in E. coli” value read?
Answer: soluble

Question: For “MGQDTDMLNTYQQLVRTPSVRPGQDVRLQAPGTRTGLLKLLSTVSQDKQGCLGSGDGVPNQDLQQRSQSSRQTAKKDRKPRGQSKKGQGSEESEDHFPLLPRKPSFPFQWAWESIATDVRAVLQPSSPTPGHQALPMPSSFSQRQSRRKSTANLPEAHGCCWKTEAQNLKARQQLGAWGGVSIPTGKGELGSEPPSGLQLPGRRPGSGSASDKQVQLQSLGAEEAERGLSSGVLPQRPRRGSISEEEQFSEATEEAEEGEHRTPCRRRAGCQRKGQISGEEASDEGEVQGQSQGSSPSFNNLRRRQWRKTRAKELQGPWDLEKLHRQLQRDLDCGPQKLPWKTLRAAFQASKRNGKAYASGYDETFVSANLPNRTFHKRQEATRSLLQAWERQRQEERQQAELRRARTQHVQRQVAHCLAAYAPRGSRGPGAAQRKLEELRRQERQRFAEYQAELQGIQHRVQARPFLFQQAMQANARLTVTRRFSQVLSALGLDEEQLLSEAGKVDREGTPRKPRSHRSVGVRMEHSPQRPPRTEPTGSQPDRHYNPSLDPECSP”, which “soluble on expression in E. coli” value is on record?
Answer: not soluble

Question: With “MNLPKKVRLVEVGPRDGLQNEKQPIEVADKIRLVDDLSAAGLDYIEVGSFVSPKWVPQMAGSAEVFAGIRQRPGVTYAALAPNLKGFEAALESGVKEVAVFAAASEAFSQRNINCSIKDSLERFVPVLEAARQHQVRVRGYISCVLGCPYDGDVDPRQVAWVARELQQMGCYEVSLGDTIGVGTAGATRRLIEAVASEVPRERLAGHFHDTYGQALANIYASLLEGIAVFDSSVAGLGGCPYAKGATGNVASEDVLYLLNGLEIHTGVDMHALVDAGQRICAVLGKSNGSRAAKALLAKA” as the sequence, how does the “soluble on expression in E. coli” value read?
Answer: soluble

Question: With “MRILVTNDDGIYSPGLWALAEAASQFGEVFVAAPDTEQSAAGHAITIAHPVRAYPHPSPLHAPHFPAYRVRGTPADCVALGLHLFGPVDLVLSGVNLGSNLGHEIWHSGTVAAAKQGYLFGLSAAAFSVPLNGEVPDFAGLRPWLLRTLETLLRLERPFLVNVNLPLRPKGFLWTRQSVRAYEGVVIPGEDPMGRPFYWFAPRPLKEAEEGTDRWAVAQGFVSATPLRLDLTDETRLQPTLAHD” as the sequence, how does the “soluble on expression in E. coli” value read?
Answer: soluble

Question: Which “soluble on expression in E. coli” value does the source give for “MDFKQRHTWLKIASCKSISAKKRASIWQKLTEFDQYEMTTQTFAESFFPVDKLAQILMELETAEACFFDDVTLIWILDDAYPALLREIYEAPPILFCKGNIDLLQQQAIAIVGTRQMSEYGRKACMKIASELAENKLTIVSGMAIGIDSTAHRATLNKQGATIAVLGSGVNKVYPKKNELLAKEIVKEGLLLSEYLPDEEAKRWHFPERNRIISGLAIGTVIIEAAERSGSLITADIALEQNRQVFAVPGNIFIDTWQGTNYLIQEGAKLVMNSNNIIEEFIQIKP” here?
Answer: not soluble

Question: Which “soluble on expression in E. coli” value does the source give for “MGSDKIHHHHHHMENYKERKLIAIDLDGTTLQSDGRSISRYTKYIFKQVESLGHIICITTGRPFRMSLDVYRELELTSPVINFNGALISMPNDKNWEHTKSYYIDRSFIFDLLRHQQNFNLHFFAVEYRRKFFLNTFRNVEPKLFGVEKFQPYNRLRADRVTENPHAVLLSTRQKDKLALAEEMKRHYNGKIDVGVWGGPNGILEVVPKGISKASGLNHLLKVLDIPLENLIAFGDEHNDIEMFKLAPNAYAMKNASARLTPYASEILPWTNDEDGVARQLEKLFLTPNK” here?
Answer: not soluble

Question: With “SMQEEDTFRELRIFLRNVTHRLAIDKRFRVFTKPVDPDEVPDYVTVIKQPMDLSSVISKIDLHKYLTVKDYLRDIDLICSNALEYNPDRDPGDRLIRHRACALRDTAYAIIKEELDEDFEQLCEEIQESR” as the sequence, how does the “soluble on expression in E. coli” value read?
Answer: soluble

Question: For “KGDFVFKPYLLVQTCANFNWYDDEGLDKAYNQDNVANSGFSIPYAVLGFTGKAFGKVAFNLSINAAASGGALLQQAWFDVQLKKQFAVRVGKFKTPFSHAYLTTLGETLLPQLPVSLTSAIILPYSLNAVTPNIGTGFDLGVEIHGLLADKFGYEVGLFNGTGSSVNTATKTLSDDWHIPSLLYAGRFTYMPKGVMPSTQGNPNRLNEDKIMFGVSASINVESENESTNDTRVGVEFAMLKNKLYLGAEAYYMNVGFTDRQKINETYNYLGGYVQGGYFVAPRLQAALRYDFFNRNGTSDDGFLNMPAVGVNYFFKGCNLKLQAMYQYIARTGHDTQLDRDNDNLGLATHSATVMLQYTF”, which “soluble on expression in E. coli” value is on record?
Answer: not soluble

Question: Which “soluble on expression in E. coli” value does the source give for “MLQSINQLNPDIVVITGDLTENGFSAEYDGVKMFIDRIECKNRVLVPGNHDSKNAGYLHFEDLFENRFQTRNLGNMTIVGADSSQPDIDDGHLGRENYGWIKEAFSGENFKVFALHHHLVPIPLAGRENTVLVDAGDVLDLLNKCRVNLVLCGHCHIPHVWNLNNMLVVNAGTFCSSKTRGKTTQCFNLIQAENSEKNGNGESEKIEDGGWKVRVSRVFPQGNIEFITETVMLEHHHHHH” here?
Answer: not soluble

Source: the DeepSol protein solubility set
